Data published in the supplement of paper PMC6757056.
± gives the standard deviation of the averaged measurements.

B1: library; a variant is named by its letters at N, in order (parent)
chain: GCUGUCACCGGUGUAUUACCCUAGUGGUCGACCGGUCUGAUGAGUCUNNNNNNAGACGAAACAGC

Key:
hypoxanthine [1] = variants of: B1; test: normalized RNA/DNA level with ligand (relative to sTRSVctl = 100) (log10 (% of sTRSVctl)); ligand: hypoxanthine (xanthine aptamer); higher = less ribozyme self-cleavage, higher mRNA level; conditions: ligand concentration (+) RNA-Seq: 5 mM, HEK293T, reporter: mCherry (pCS4076), ligand present: yes
Summary of the method: (§1)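 Ribozyme switch library plasmids with mCherry reporters (eGFP in certain ligand experiments) went into HEK293T cells at 4 µg per 6-well well. Where ligand was used, it was applied 1 h before transfection, and total RNA was extracted with EDTA 72 h later for reverse transcription, amplification, barcoding and sequencing. RNA level is the RNA-to-DNA read ratio normalized to a spiked-in non-cleaving sequence or to the leading sequences, then scaled and log-transformed. Scaling was ×100 with log10, the leading set comprised 25 sequences, and the cutoff was ≥100 DNA reads.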

hypoxanthine [2] = variants of: B1; test: normalized RNA/DNA level without ligand (relative to sTRSVctl = 100) (log10 (% of sTRSVctl)); ligand: hypoxanthine (xanthine aptamer); higher = less ribozyme self-cleavage, higher mRNA level; conditions: HEK293T, reporter: mCherry (pCS4076), ligand present: no
Summary of the method: as §1

| Variant | normalized RNA/DNA level with ligand (log10) (hypoxanthine [1]) | normalized RNA/DNA level without ligand (log10) (hypoxanthine [2]) |
| --- | --- | --- |
| CUACGU | 1.98 ± 0.067 | 1.9 ± 0.027 |
| CGUGAC | 1.916 ± 0.0084 | 1.79 ± 0.04 |
| GCAGGU | 1.93 ± 0.031 | 1.73 ± 0.056 |
| AGAUCC | 1.936 ± 0.0091 | 1.874 ± 0.0045 |
| CGGGUC | 2.01 ± 0.05 | 1.946 ± 0.017 |
| UCACAC | 1.94 ± 0.088 | 1.741 ± 0.015 |
| UAGCUG | 1.944 ± 0.011 | 1.77 ± 0.02 |
| CGGCGC | 2.005 ± 0.013 | 1.93 ± 0.064 |
| ACCCGU | 1.94 ± 0.024 | 1.82 ± 0.048 |
| ACUCUC | 2.06 ± 0.025 | 2.014 ± 0.005 |
| CACAGA | 1.97 ± 0.05 | 1.847 ± 0.015 |
| CUACAC | 1.91 ± 0.026 | 1.77 ± 0.029 |
| GGAUGU | 1.93 ± 0.033 | 1.746 ± 0.0056 |
| GUAUGC | 1.868 ± 0.0093 | 1.46 ± 0.08 |
| UUGGAG | 1.95 ± 0.041 | 1.684 ± 0.0079 |
| GACCCA | 1.928 ± 0.0094 | 1.833 ± 0.0075 |
| UCUACU | 1.97 ± 0.067 | 1.917 ± 0.014 |
| GAACUC | 1.9377 ± 0.00012 | 1.9 ± 0.01 |
| AUGCGC | 1.93 ± 0.051 | 1.73 ± 0.031 |
| CCUGAC | 1.92 ± 0.1 | 1.83 ± 0.035 |
| UAGUCU | 1.96 ± 0.028 | 1.88 ± 0.019 |
| GGAGUU | 1.97 ± 0.038 | 1.881 ± 0.0061 |
| GAGUUC | 1.92 ± 0.093 | 1.86 ± 0.053 |

| Variant | normalized RNA/DNA level with ligand (log10) (hypoxanthine [1]) | normalized RNA/DNA level without ligand (log10) (hypoxanthine [2]) |
| --- | --- | --- |
| UUUCGU | 1.96 ± 0.0091 | 1.851 ± 0.0071 |
| GCGCGC | 1.93 ± 0.082 | 1.68 ± 0.026 |
| GGCGCC | 2.004 ± 0.0022 | 1.93 ± 0.024 |
| AGCACU | 1.96 ± 0.039 | 1.8853 ± 0.00075 |
| UAAACA | 1.913 ± 0.017 | 1.875 ± 0.015 |
| UGGUAU | 1.907 ± 0.0077 | 1.707 ± 0.017 |
| CCGUCA | 1.909 ± 0.008 | 1.855 ± 0.0032 |
| UGGGUC | 1.98 ± 0.043 | 1.966 ± 0.0086 |
| GUCGUC | 2.03 ± 0.088 | 1.93 ± 0.058 |
| CGUGCC | 1.97 ± 0.039 | 1.922 ± 0.0033 |
| CGUGCG | 1.95 ± 0.071 | 1.9 ± 0.027 |
| CUGUCU | 2.03 ± 0.079 | 1.89 ± 0.077 |
| ACAUCC | 1.98 ± 0.049 | 1.931 ± 0.0044 |
| CGGGGU | 1.99 ± 0.0036 | 1.908 ± 0.0053 |
| AUCCGG | 1.954 ± 0.0038 | 1.7 ± 0.051 |
| GCUGAG | 1.85 ± 0.083 | 1.347 ± 0.012 |
| ACGGUG | 1.8673 ± 0.00056 | 1.24 ± 0.062 |
| AAUCAG | 1.838 ± 0.018 | 1.56 ± 0.041 |
| GGGACC | 1.98 ± 0.069 | 1.86 ± 0.052 |
| CCGACA | 1.978 ± 0.01 | 1.79 ± 0.025 |
| AACGCA | 1.9072 ± 0.0004 | 1.76 ± 0.03 |
| UGUAGG | 1.895 ± 0.002 | 1.5 ± 0.015 |
| GUCCGU | 1.891 ± 0.0098 | 1.86 ± 0.041 |

| Variant | normalized RNA/DNA level with ligand (log10) (hypoxanthine [1]) | normalized RNA/DNA level without ligand (log10) (hypoxanthine [2]) |
| --- | --- | --- |
| UUGUGC | 2.02 ± 0.024 | 1.99 ± 0.047 |
| UUAAUC | 1.95 ± 0.017 | 1.96 ± 0.058 |
| AAUUUA | 1.93 ± 0.047 | 1.828 ± 0.0075 |
| GGUUCU | 1.977 ± 0.018 | 1.9 ± 0.022 |
| CCGUAA | 1.95 ± 0.098 | 1.67 ± 0.1 |
| CAUCGC | 1.97 ± 0.064 | 1.9 ± 0.021 |
| ACUCGC | 1.99 ± 0.041 | 1.93 ± 0.032 |
| GACGUC | 1.95 ± 0.046 | 1.85 ± 0.019 |
| GACUCU | 1.94 ± 0.092 | 1.93 ± 0.029 |
| GCUGGA | 1.904 ± 0.011 | 1.8 ± 0.074 |
| CAUUGG | 1.91 ± 0.04 | 1.47 ± 0.068 |
| CCCACU | 1.96 ± 0.037 | 1.87 ± 0.022 |
| GUGGCA | 1.98 ± 0.02 | 1.83 ± 0.072 |
| AUUAGU | 1.95 ± 0.028 | 1.712 ± 0.0075 |
| GUUCCA | 1.963 ± 0.017 | 1.9 ± 0.029 |
| GUUCCC | 1.99 ± 0.021 | 1.92 ± 0.044 |
| AACUCA | 1.975 ± 0.012 | 1.88 ± 0.023 |
| AACUCU | 1.9 ± 0.039 | 1.898 ± 0.015 |
| CAAACU | 1.94 ± 0.039 | 1.9 ± 0.035 |
| GCCCUC | 1.97 ± 0.035 | 1.88 ± 0.058 |
| CACGGA | 1.912 ± 0.0058 | 1.8 ± 0.048 |
| CUUUCC | 1.91 ± 0.05 | 1.96 ± 0.039 |
| CAGUUC | 1.91 ± 0.11 | 1.81 ± 0.031 |

| Variant | normalized RNA/DNA level with ligand (log10) (hypoxanthine [1]) | normalized RNA/DNA level without ligand (log10) (hypoxanthine [2]) |
| --- | --- | --- |
| CCCCAC | 1.987 ± 0.018 | 1.9 ± 0.073 |
| AGGGCU | 1.99 ± 0.027 | 1.874 ± 0.018 |
| UCAUGG | 1.9 ± 0.034 | 1.69 ± 0.049 |
| CUUCUU | 2.01 ± 0.066 | 1.868 ± 0.0019 |
| UUUGGG | 1.92 ± 0.025 | 1.71 ± 0.035 |
| AUGUCG | 1.863 ± 0.018 | 1.52 ± 0.036 |
| AAACUA | 1.89 ± 0.043 | 1.7704 ± 0.0017 |
| AAACUC | 1.95 ± 0.035 | 1.95 ± 0.021 |
| ACUCAA | 1.92 ± 0.073 | 1.748 ± 0.0042 |
| GCUGUU | 1.99 ± 0.05 | 1.98 ± 0.058 |
| UCACUU | 1.93 ± 0.043 | 1.88 ± 0.025 |
| AUUCCC | 1.9 ± 0.031 | 1.87 ± 0.03 |
| UAGUUU | 1.92 ± 0.04 | 1.86 ± 0.023 |
| CUAUGA | 1.95 ± 0.036 | 1.85 ± 0.042 |
| UGAGCA | 1.97 ± 0.04 | 1.805 ± 0.0096 |
| ACCUUU | 1.97 ± 0.034 | 1.89 ± 0.0069 |
| AGUUUC | 1.92 ± 0.033 | 1.93 ± 0.033 |
| UGACCG | 1.96 ± 0.094 | 1.79 ± 0.046 |
| CAGAAU | 1.9 ± 0.034 | 1.64 ± 0.072 |
| GUUCGG | 1.908 ± 0.019 | 1.604 ± 0.0043 |
| GAUCGC | 1.93 ± 0.023 | 1.8 ± 0.053 |
| UCAGUC | 1.96 ± 0.056 | 1.9668 ± 0.0014 |
| UGUUCA | 1.96 ± 0.093 | 1.87 ± 0.029 |

| Variant | normalized RNA/DNA level with ligand (log10) (hypoxanthine [1]) | normalized RNA/DNA level without ligand (log10) (hypoxanthine [2]) |
| --- | --- | --- |
| CGAGAU | 1.94 ± 0.036 | 1.71 ± 0.018 |
| UAGGAG | 1.872 ± 0.018 | 1.41 ± 0.04 |
| AAAUCC | 1.94 ± 0.055 | 1.829 ± 0.0029 |
| CGUAAU | 1.86 ± 0.022 | 1.675 ± 0.013 |
| AGAGUC | 1.937 ± 0.017 | 1.8831 ± 0.0015 |
| ACUGCU | 1.91 ± 0.033 | 1.86 ± 0.037 |
| UCUGCA | 1.92 ± 0.024 | 1.88 ± 0.059 |
| CUCCUG | 1.94 ± 0.021 | 1.953 ± 0.0068 |
| CUCCUU | 1.99 ± 0.087 | 1.89 ± 0.056 |
| GUCCUA | 1.95 ± 0.069 | 1.934 ± 0.015 |
| UGACUU | 1.913 ± 0.0093 | 1.89 ± 0.03 |
| UUUUUA | 1.99 ± 0.064 | 1.93 ± 0.045 |
| UCUUGC | 1.98 ± 0.1 | 1.9 ± 0.022 |
| CCCGAG | 1.89 ± 0.035 | 1.65 ± 0.022 |
| GUCGCG | 1.93 ± 0.039 | 1.55 ± 0.055 |
| CACUGC | 1.96 ± 0.037 | 1.909 ± 0.0035 |
| UUGAUU | 1.98 ± 0.03 | 1.905 ± 0.011 |
| UAUAGC | 1.95 ± 0.009 | 1.83 ± 0.054 |
| CACAUU | 1.909 ± 0.017 | 1.86 ± 0.031 |
| CAAGUU | 1.93 ± 0.021 | 1.939 ± 0.0037 |
| UCAUUG | 1.91 ± 0.026 | 1.72 ± 0.043 |
| CCCUGU | 1.94 ± 0.078 | 1.94 ± 0.053 |
| GCUAGU | 1.92 ± 0.11 | 1.722 ± 0.0072 |
